Laboratory results from patent US20250127915A1 (SHANGHAI JUNSHI BIOSCIENCES, published 2025).
Changes are numbered by the printed parent chain. Read-outs that look alike come from different tables or passages of the source.

B1: ADC-4-MMAE (antibody, human IgG1, kappa, V domains shown)
VH: EVQLVESGGGLVQPGGSLRLSCAASGFTLNNFGMHWVRQAPGKGLEWVSSISSGSGTIYYADSVKGRFTISRDNPKNSLYLQMNSLRAEDTAVYYCARAYYGNGFSFWGQGTLVTVSS
VL: DIVMTQSPDSLAVSLGERATINCKSSQSLLNSGNQKNYLTWYQQKPGQPPKLLIYWASTRESGVPDRFSGSGSGTDFTLTISSLQAEDVAVYYCQNVYSYPLTFGQGTKLEIKR
modifications: MC-VC-PAB-MMAE (vc-MMAE) coupled after TCEP reduction of the antibody; positions not given; DAR 4.55
notes: also called JS107-4-MMAE
B2: ADC-3-MMAE (antibody, V domains shown)
VH: QIQLVQSGSELKKPGESVKVSCKASGYTFTNYGMNWVRQAPGQGLEWMGWINTYTGESTYADGFTGRFVFSSDTSARTAYLQISSLKAEDTAVYFCATLGYGNSLAYWGQGTLVTVSS
VL: B1 VL with K36R, V97N, S99F, L102F
modifications: MC-VC-PAB-MMAE (vc-MMAE) coupled after TCEP reduction of the antibody; positions not given; DAR 3.97
notes: also called JS107-3-MMAE
B3: ADC-5-MMAE (antibody, human IgG1, kappa, V domains shown)
VH: B1 VH
VL: B1 VL
modifications: MC-VC-PAB-MMAE (vc-MMAE) coupled after TCEP reduction of the antibody; positions not given; DAR 4.1
notes: also called JS107-5-MMAE
B4: ADC-4-MMAF (antibody, human IgG1, kappa, V domains shown)
VH: B1 VH
VL: B1 VL
modifications: MC-MMAF coupled after TCEP reduction of the antibody; positions not given; DAR 3.85
notes: also called JS107-4-MMAF
B5: JS012-Chi2-hu2-v3-2a (antibody, human IgG1, kappa, V domains shown)
VH: B1 VH
VL: B1 VL
notes: also called JS107-5
B6: JS012-Chi9-hu7 (antibody, human IgG1, kappa, V domains shown)
VH: B2 VH
VL: B1 VL with K36R, V97N, S99F, L102F
notes: also called JS107-3; JS012-chi9-hu07
B7: JS012-Chi2-hu2-v3-2 (antibody, human IgG1, kappa, V domains shown)
VH: B1 VH
VL: B1 VL
notes: also called JS107-4

Tests used:
human CLDN-18.2 [1] = molecular target: T1, human CLDN-18.2 (human, UniProt P56856 1-261); assay: cell-based or functional assay
human CLDN-18.2 [2] = molecular target: T1, human CLDN-18.2; assay: cell-based or functional assay; remark: listed apart in the source
human CLDN-18.2 [3] = molecular target: T1, human CLDN-18.2; assay: flow cytometry on NUGC4-CLDN-18.2 cells overexpressing human CLDN-18.2, 4 °C 30 min, fluorescent secondary antibody, MFI-PE
Protocol: Finally, the fluorescence intensity was detected by BD CantoII flow cytometer. […] The antibody dose-dependent binding curve was fitted by GraphPad (FIGS. 1a-1d) and EC50 was calculated. The positive controls were the corresponding monoclonal antibodies, and the negative control was anti-KLH IgG1.

human CLDN-18.2 [4] = molecular target: T1, human CLDN-18.2; assay: cell-based or functional assay; remark: listed apart in the source

Binder | EC50 of endocytosis (MFI-APC of CypHer5E-labelled conjugate in NUGC4-CLDN-18.2 cells, 37 °C 4 h, FACS) (human CLDN-18.2 [1]) | IC50 of inhibition of NUGC4-CLDN-18.2 cells proliferation (Cell titer Glo, 48 h) (human CLDN-18.2 [2]) | EC50 (human CLDN-18.2 [3]) | EC50 of endocytosis (MFI-APC of CypHer5E-labelled conjugate in NUGC4-CLDN-18.2 cells, 37 °C 4 h, FACS) (human CLDN-18.2 [4]) | EC50 of endocytosis (MFI-APC of CypHer5E-labelled antibody in NUGC4-CLDN-18.2 cells, 37 °C 4 h, FACS) (human CLDN-18.2 [4])
B1 | 2.67 µg/mL | 0.011 µg/mL | 0.495 µg/mL | – | –
B2 | 0.937 µg/mL | 0.0127 µg/mL | 2.96 µg/mL | – | –
B3 | – | – | 0.23 µg/mL | 21.8 µg/mL | –
B4 | 1.61 µg/mL | 0.00936 µg/mL | 1.21 µg/mL | – | –
B5 | – | – | 0.347 µg/mL | – | 58.8 µg/mL
B6 | – | – | 3.76 µg/mL | – | –
B7 | – | – | 1.65 µg/mL | – | –
